Laboratory results reported in publication PMC7156744, “CdbA is a DNA-binding protein and c-di-GMP receptor important for nucleoid organization and segregation in Myxococcus xanthus” (Nature Communications, 2020).
Changes are numbered by the printed parent chain.

Tests used:
[1] = biological target: T1, CdbA R27A/R30A-His6 R78A;R81A (Myxococcus xanthus DK1622) (UniProt Q1D489); assay: EMSA; conditions: 10x buffer: 380 mM HEPES, 380 mM NaCl, 50 mM MgCl2, 50% glycerol, 10 mM DTT, 15 ng/ul poly(dI-dC), 50 ng probe, 30 C 30 min, 10% PAGE 1x TBE 4 C, pH not …
T1 sequence: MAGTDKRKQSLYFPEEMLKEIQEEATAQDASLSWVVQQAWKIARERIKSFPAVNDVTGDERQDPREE

[2] = biological target: T2, CdbA K8A/S10A-His6 K59A;S61A (Myxococcus xanthus DK1622) (UniProt Q1D489); assay: EMSA; conditions: 10x buffer: 380 mM HEPES, 380 mM NaCl, 50 mM MgCl2, 50% glycerol, 10 mM DTT, 15 ng/ul poly(dI-dC), 50 ng probe, 30 C 30 min, 10% PAGE 1x TBE 4 C, pH not …
T2 sequence: T1 sequence with K8A, S10A, A27R, A30R

## ACTTGGGTCTCCGGGGCGGATTCGGGGTGACGACCTGAACACACCTGGGCCGTTATCCGACAGACTCCCAAGTGGGTCAACGGTTTCCAAGGACTCATTCCGAGGTCGCACGGTCCGTCCCCGTGCTCGTCCAGTTGCACGTAAGCTGTGCAACCATGCGCGAAAAAGGAAACGCCCCGGACTCCACGAGGAAGTCCGGGGCGCTTCGGAAAGAGGGACCGCCTAGAGAAATCTCCAGGCGGGCCCGTGG (double strand) [cdbAB promoter]
[1]
  binding: no binding
[2]
  binding: no binding
